Measured values reported in paper PMC5601406 (2017).

Target: SN (Staphylococcus nuclease scaffold protein) (Staphylococcus aureus, UniProt Q5HHM4)
Experiment: ELISA

B1: SmpB (protein)
chain: MSKKNSKNKAGSNTIALNRSARHEYFIEEKIEAGLSLQGWEVKSLRAGKANISEAYVIFRDGEAYLFGSSFLPLQAASSHVVCDPTRTRKLLLSRRELDKLESLIARQGYTVVPLALYWKQCWVKVEIGLVKGKKEHDKREDTKAREWDREKARIMKNKHRG
Kd: 1380 nM
